Assay results: US6001988, “High affinity nucleic acid ligands to lectins” (NeXstar Pharmaceuticals, Inc.)

T1: wheat germ agglutinin (WGA) (Triticum vulgare, UniProt P10968 P10968:27-197)
T1 sequence: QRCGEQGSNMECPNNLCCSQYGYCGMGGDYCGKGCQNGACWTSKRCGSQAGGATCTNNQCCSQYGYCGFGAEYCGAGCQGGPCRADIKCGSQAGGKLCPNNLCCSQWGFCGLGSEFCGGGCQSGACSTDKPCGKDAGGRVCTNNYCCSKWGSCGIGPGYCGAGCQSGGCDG


Target: T1, wheat germ agglutinin (WGA)
Test: filter; HBSS, room temp
Conditions: tags: free lectin, E Y Laboratories; label: 32P
Protocol: The specifically eluted fraction was processed for use in the following round. Fractions eluted from immobilized WGA were heated at 90° C. for 5 minutes in 1% SDS, 2% β-mercaptoethanol and extracted with phenol/chloroform. RNA was reverse transcribed into cDNA by AMV reverse transcriptase at 48° C. for 60 min in 50 mM Tris-Cl pH (8.3), 60 mM NaCl, 6 mM Mg(OAc)_2, 10 mM DTT, 100 pmol DNA primer, 0.4 mM each of dNTPs, and 0.4 unit/µl AMV RT. […] C) Nitrocellulose Filter Partitioning As described in SELEX Patent Applications, the nitrocellulose filter partitioning method was used to determine the affinity of RNA ligands for WGA and for other proteins. Filter discs (nitrocellulose/cellulose acetate mixed matrix, 0.45 µm pore size, Millipore; or pure nitrocellulose, 0.45 µm pore size, Bio-Rad) were placed on a vacuum manifold and washed with 4 ml of HBSS buffer under vacuum. Reaction mixtures, containing ^32P labeled RNA pools and unlabeled WGA, were incubated in HBSS for 10 min at room temperature, filtered, and then immediately washed with 4 ml HBSS. The filters were air-dried and counted in a Beckman LS6500 liquid scintillation counter without fluor. WGA is a homodimer, molecular weight 43.2 kD, with 4 GlcNAc binding sites per dimer. For affinity calculations, we assume one RNA ligand binding site per monomer (two per dimer). The monomer concentration is defined as 2 times the dimer concentration. The equilibrium dissociation constant, K_d, for an RNA pool or specific ligand that binds monophasically is given by the equation $$K_d=[P_f][R_f]/[RP]$$
The dissociation constants for representative members of families 1–9 and orphan ligands were determined by nitrocellulose filter binding experiments and are listed in Table III. These calculations assume one RNA ligand binding site per WGA monomer.

Row | Binder | Kd
1 | 6.3 (ssRNA, 2'-NH2 all C and U) RNA: GGGAAAAGCGAAUCAUACACAAGAGAUACAGCGCGGGUCUAAAGACCUUGCCCCUAGGAUGCAACGGGGUGGCUCCGCCAGAGACCAACCGAGAA | 120 nM
2 | 11.2 (ssRNA, 2'-NH2 all C and U) RNA: GGGAAAAGCGAAUCAUACACAAGACCAACGUACAUCGCGAGCUGGUGGAGAGUUCAUGAGGGUGUUACGGGGUGCUCCGCCAGAGACCAACCGAGAA | 62 nM
3 | 6.19 (ssRNA, 2'-NH2 all C and U) RNA: GGGAAAAGCGAAUCAUACACAAGAAUCGAACCUAGGGAUGCAACGGUGAAGGUUGUGAGGAUUCGCCAUUAGGCGCUCCGCCAGAGACCAACCGAGAA | 74 nM
4 | 6.27 (ssRNA, 2'-NH2 all C and U) RNA: GGGAAAAGCGAAUCAUACACAAGAUGCCGGUGGAAAGGCGGGUAGGUGACCCGAGGAUUCCUACCAAGCCAUGCUCCGCCAGAGACCAACCGAGAA | 56 nM
5 | 6.5 (ssRNA, 2'-NH2 all C and U) RNA: GGGAAAAGCGAAUCAUACACAAGAGUCCCUAGGGAUGCAACGGGCAGCAUUCGCAUAGGAGUAAUCGGAGGUCGCUCCGCCAGAGACCAACCGAGAA | 678 nM
6 | 11.29 (ssRNA, 2'-NH2 all C and U) RNA: GGGAAAAGCGAAUCAUACACAAGAACUGAGUAAGGUCUGGCGUGGCAUUAGGUUAGUGGGAGGCUUGGAGUAGGCUCCGCCAGAGACCAACCGAGAA | 32 nM

Same assay, conditions: tags: free lectin, E Y Laboratories; label: 32P; hairpin

Row | Binder | Kd
7 | 6.9 (ssRNA, 2'-NH2 all C and U) RNA: GGGAAAAGCGAAUCAUACACAAGACUCGGCGGGAACGAAGUGUGUGAGUAACGAUCACUUGGUACUAAAAGCCCGCUCCGCCAGAGACCAACCGAGAA | 396 nM
8 | 11.5 (ssRNA, 2'-NH2 all C and U) RNA: GGGAAAAGCGAAUCAUACACAAGAACAAGGAUCGAUGGCGAGCCGGGGAGGGCUCGGCGGGAACGAAAUCUGCUCCGCCAGAGACCAACCGAGAA | 44 nM
9 | 11.8 (ssRNA, 2'-NH2 all C and U) RNA: GGGAAAAGCGAAUCAUACACAAGAAUGGUUGGCCUGGGCGCAGGCUUCGAAGACUCGGCGGGAACGGGAAUGGCUCCGCCAGAGACCAACCGAGAA | 9.2 nM
10 | 11.15 (ssRNA, 2'-NH2 all C and U) RNA: GGGAAAAGCGAAUCAUACACAAGACUCGGCGGGAACGAAAGUGUCAUGGUAGCAAGUCCAAUGGUGGACUCUGCUCCGCCAGAGACCAACCGAGAA | 54 nM
11 | 11.6 (ssRNA, 2'-NH2 all C and U) RNA: GGGAAAAGCGAAUCAUACACAAGACUGGGGAGCAGGAUAUGAGAUGUGCGGGGCAAUGGAGUCGUGACGAACCGCUCCGCCAGAGACCAACCGAGAA | 702 nM
12 | 11.32 (ssRNA, 2'-NH2 all C and U) RNA: GGGAAAAGCGAAUCAUACACAAGACGUGCGGAGCAAAUAGGGGAUCAUGGAGUCGUACGAACCGUUAUCGCGCUCCGCCAGAGACCAACCGAGAA | 274 nM
13 | 11.26 (ssRNA, 2'-NH2 all C and U) RNA: GGGAAAAGCGAAUCAUACACAAGAUUGGGCAGGCAGAGCGAGACCGGGGGCUCGGCGGGAACGGAACAGGAAUGCUCCGCCAGAGACCAACCGAGAA | 38 nM
14 | 11.34 (ssRNA, 2'-NH2 all C and U) RNA: GGGAAAAGCGAAUCAUACACAAGACUCGGCGGGAACGUGAAGUGGGUAGGUAGCUGAAGACGGUCUGGGCGCCAGCUCCGCCAGAGACCAACCGAGAA | 92 nM

Same assay, conditions: tags: free lectin, E Y Laboratories; label: 32P; possible G-quartet (speculative)

Row | Binder | Kd
15 | 11.28 (ssRNA, 2'-NH2 all C and U) RNA: GGGAAAAGCGAAUCAUACACAAGAGUUGGUGCGAGCUGGGGCGGCGAGAAGGUAGGCGGUCCGAGUGUUCGAAUGCUCCGCCAGAGACCAACCGAGAA | 9.2 nM
